One block for each binder: values may come before it.
What was measured:
[1] = molecular target: T1, human SIRPα variant 1 (human, UniProt P78324 31-504); assay: CELISA, CHO-K1 transfectants, point mutant study
T1 construct: full length ORF on transfected CHO-K1 or HEK293 cells; entry includes the signal peptide; also called hSIRPαV1; SIRPαV1
Procedure: To pinpoint the amino acids for interaction of hSIRPα.50A with the IgV domain, several point mutants of hSIRPαV1 were generated based on single amino acid differences between hSIRPαV1/V2 and hSIRPβ1. […] Amino acids in the hSIRPα IgV domain that are altered in hSIRPβ1 were mutated by using the QuikChange II Site-Directed Mutagenesis Kit (Stratagene) and the full length hSIRPαV1 sequence (SEQ ID NO: 33) as donor cDNA. Binding of hSIRPα.50A to hSIRPαV1 point mutants was tested using CELISA. To this end, CHO-K1 cells were transiently transfected, using Lipofectamine 2000, with cDNA encoding the full length open reading frame of hSIRPαV1 and mutants thereof, and hSIRPβ1 subcloned into the pCI-neo vector. Transfected cells were seeded in culture medium (DMEM-F12 (Gibco) supplemented with 5% New Born Calf Serum (BioWest) and Pen/Strep (Gibco)) in 96-well flat-bottom tissue culture plates and incubated at 37° C., 5% CO₂ and 95% humidity for 24 hours. Subsequently, culture medium was removed and cells were incubated for 1 hour at 37° C., 5% CO₂ and 95% humidity with purified hSIRPα antibodies (used at 10 μg/mL and dilutions thereof). Next, cells were washed with PBS-T and incubated for 1 hour at 37° C., 5% CO₂ and 95% humidity with goat-anti-mouse IgG-HRP (Southern Biotech). […] Reactions were stopped with 0.5 M H₂SO₄ and absorbances were read at 450 and 610 nm. […]
Target sequence in this assay (P78324 31-504 limits assumed, change not shown): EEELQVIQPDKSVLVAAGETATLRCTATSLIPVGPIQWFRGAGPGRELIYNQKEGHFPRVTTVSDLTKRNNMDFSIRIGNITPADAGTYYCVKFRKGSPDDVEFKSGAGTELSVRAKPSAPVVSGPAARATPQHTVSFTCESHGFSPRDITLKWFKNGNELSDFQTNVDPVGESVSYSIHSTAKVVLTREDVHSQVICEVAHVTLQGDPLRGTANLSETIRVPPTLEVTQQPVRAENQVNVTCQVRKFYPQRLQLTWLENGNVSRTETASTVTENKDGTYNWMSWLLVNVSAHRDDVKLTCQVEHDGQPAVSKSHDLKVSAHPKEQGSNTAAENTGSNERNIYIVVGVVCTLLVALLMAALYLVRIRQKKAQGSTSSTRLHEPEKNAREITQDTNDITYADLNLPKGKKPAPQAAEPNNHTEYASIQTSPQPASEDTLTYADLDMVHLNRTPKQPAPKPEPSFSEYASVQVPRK

[2] = molecular target: T1, human SIRPα variant 1; assay: flow cytometry, blockade of DyLight488-hCD47/Fc binding to U-937 cells
Procedure: hCD47 blockade was assessed by flow cytometry for the full panel of humanized hSIRPα.40A antibodies. To this end, the U-937 (ATCC CRL-1593.2) monocyte cell line was used as the source of hSIRPα in the assay. U-937 cells were seeded in 96-well round bottomed tissue culture plates and incubated for 45 minutes with FcR Blocking Reagent (Miltenyi Biotec) and the parental or humanized hSIRPα.40A antibody variants (20 μg/mL and dilutions thereof) in PBS/1% BSA at 4° C. […] After this labeling procedure, cells were washed two times, resuspended in PBS/1% BSA containing 0.1 μg/mL DAPI (BioLegend), and analysed by flow cytometry on the FACSVerse (BD Biosciences). Data were processed and analysed with FlowJo V10 software (FlowJo, LLC) and plotted using GraphPad Prism 6 (GraphPad Software, Inc.).
As depicted in FIG. 18 and the following Table 21, binding of recombinant hCD47 fused to an Fc domain of human IgG1 was monitored in the presence of increasing amounts of the humanized hSIRPα.40A antibody variants. Humanized hSIRPα.40A blocked the hSIRPα/hCD47 interaction, using the flow cytometry-based method described above. […] IC50 values represent the concentration at which half of the inhibition is observed.

[3] = molecular target: T2, human SIRPβ1 (human, UniProt O00241 30-398); assay: CELISA, CHO-K1 transfectants
T2 construct: also called hSIRPβ1
T2 sequence (O00241 30-398 limits assumed): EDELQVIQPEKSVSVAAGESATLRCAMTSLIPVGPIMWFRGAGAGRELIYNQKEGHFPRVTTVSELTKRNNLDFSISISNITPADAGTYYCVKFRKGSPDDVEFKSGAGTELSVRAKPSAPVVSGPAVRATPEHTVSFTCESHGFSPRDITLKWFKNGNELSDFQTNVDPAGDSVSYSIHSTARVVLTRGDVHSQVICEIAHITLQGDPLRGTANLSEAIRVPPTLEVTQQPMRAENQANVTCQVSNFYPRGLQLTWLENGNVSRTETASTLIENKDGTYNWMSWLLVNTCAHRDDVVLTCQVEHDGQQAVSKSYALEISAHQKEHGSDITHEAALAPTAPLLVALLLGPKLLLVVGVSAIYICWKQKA
Procedure: (§1) The specificity of monoclonal anti-hSIRPα antibodies (e.g., including the hSIRPα antibodies known in the art, KWAR23 ([…]. Patent CA2939293 A1), 18D5 (Patent WO2017/178653 A2), and various commercially available hSIRPα antibodies) for binding to hSIRPαV1, hSIRPαV1(P74A), and hSIRPβ1 was evaluated by CELISA. Reactivity was confirmed using CHO-K1 cells (ATCC CCL-61) expressing a cDNA encoding the full length open reading frame of hSIRPαV1, hSIRPαV1(P74A), and hSIRPβ1 subcloned into the pCI-neo vector (Promega, Madison, Wis.). CHO-K1.hSIRPαV1, CHO-K1.hSIRPαV1(P74A), and CHO-K1.hSIRPβ1 cells were seeded in culture medium (DMEM-F12 (Gibco) supplemented with 5% New Born Calf Serum (BioWest) and Pen/Strep (Gibco)) in 96-well flat-bottom tissue culture plates and incubated at 37° C., 5% CO₂ and 95% humidity for 24 hours. Subsequently, culture medium was removed and cells were incubated for 1 hour at 37° C., 5% CO₂ and 95% humidity with purified hSIRPα antibodies (used at 10 μg/ml and dilutions thereof). Next, cells were washed with PBS-T and incubated for 1 hour at 37° C., 5% CO₂ and 95% humidity with either goat-anti-mouse IgG-HRP (Southern Biotech), goat-anti-human IgG-HRP (Jackson Immuno Research), or goat-anti-rabbit IgG-HRP (Southern Biotech). Subsequently, cells were washed three times with PBS-T and immunoreactivity against hSIRPαV1, hSIRPαV1(P74A), and hSIRPβ1 was visualized with TMB Stabilized Chromogen (Invitrogen). Reactions were stopped with 0.5 M H₂SO₄ and absorbances were read at 450 and 610 nm.

[4] = molecular target: T3, hSIRPαV1(P74A) (human, UniProt P78324 31-504); assay: CELISA, CHO-K1 transfectants
T3 construct: also called P74A variant of hSIRPαV1
T3 sequence (P78324 31-504 P74A limits assumed): as the sequence (P78324 31-504 limits assumed, change not shown) above, with P44A counted along it
Procedure: as §1

EC50 [1]: 0.535 nM
B1: hSIRPα.50A (antibody, V domains shown)
VH: QVQLQQSGPELVKPGASVRISCKASGFTFTNYYIHWVKQRPGQGLEWIGWIYPGNVNTKYNEKFKAKATLTADKSSTTAYMQLSSLASEDSAVYFCARPTIIATDFDVWGAGTTVTVSS
VL: DIVMTQSHKFMSTSVGDRVNITCKASQGVGTAVGWYQQKPGQSPRLLIYWASTRHTGVPDRFTGSGSGTDFSLAISNVQSEDLADYFCQQYSTYPFTFGGGTNLEIK
notes: light chain constant domain not tied; also called mouse hSIRPα.50A; hSIRPα.50A.mIgG1

IC50 [2]: 1.12 nM
B2: hSIRPα.40A (antibody, mouse IgG1, kappa, V domains shown)
VH: EVQFQQSGTVLARPGTSVKMSCKASGSTFTSYWMHWVKQGPGQGLQWIGAIYPVNNDTTYNQKFKGKAELTVVTSTSTAYMEVSSLTNEDSAVYYCTRSFYYSLDAAWFVYWGQGTLVTVSA
VL: DIQMTQSPSSLSASLGERVSLTCRASQDIGSRLNWLQQEPDGTIKRLIYATSSLDSGVPKRFSGSRSGSDYSLTISGLESEDFVDYYCLQYASSPFTFGGGTKLEINR
notes: mouse antibody, full chains without signal peptide; also called mouse hSIRPα.40A

EC50 [3]: 0.065 nM
EC50 [4]: 0.077 nM
B3: KWAR23 (antibody, V domains shown)
VH: EVQLQQSGAELVKPGASVKLSCTASGFNIKDYYIHWVQQRTEQGLEWIGRIDPEDGETKYAPKFQDKATITADTSSNTAYLHLSSLTSEDTAVYYCARWGAYWGQGTLVTVSS
VL: QIVLTQSPAIMSASPGEKVTLTCSASSSVSSSYLYWYQQKPGSSPKLWIYSTSNLASGVPARFSGSGSGTSYSLTISSMEAEDAASYFCHQWSSYPRTFGAGTKLELK

Source: patent US20180312587A1 (ADURO BIOTECH HOLDINGS EUROPE B V, published 2018)
